Results reported in patent publication US20120122125A1 (AbbVie / Abbott, published 2012).
Numbering of substitutions follows the chain as printed.

What was measured:
[1] = biological target: Chagas recombinant antigen FP6 (Trypanosoma cruzi); test: SPR, BIAcore 2000; murine mAb captured on rabbit anti-mouse IgG, FP6 injected 0-200 nM
[2] = biological target: T1, Chagas FP10 recombinant antigen (Trypanosoma cruzi); test: SPR, BIAcore 2000; murine mAb captured on rabbit anti-mouse IgG, FP10 injected
T1 construct: also called T. cruzi antigen FP10
T1 chain: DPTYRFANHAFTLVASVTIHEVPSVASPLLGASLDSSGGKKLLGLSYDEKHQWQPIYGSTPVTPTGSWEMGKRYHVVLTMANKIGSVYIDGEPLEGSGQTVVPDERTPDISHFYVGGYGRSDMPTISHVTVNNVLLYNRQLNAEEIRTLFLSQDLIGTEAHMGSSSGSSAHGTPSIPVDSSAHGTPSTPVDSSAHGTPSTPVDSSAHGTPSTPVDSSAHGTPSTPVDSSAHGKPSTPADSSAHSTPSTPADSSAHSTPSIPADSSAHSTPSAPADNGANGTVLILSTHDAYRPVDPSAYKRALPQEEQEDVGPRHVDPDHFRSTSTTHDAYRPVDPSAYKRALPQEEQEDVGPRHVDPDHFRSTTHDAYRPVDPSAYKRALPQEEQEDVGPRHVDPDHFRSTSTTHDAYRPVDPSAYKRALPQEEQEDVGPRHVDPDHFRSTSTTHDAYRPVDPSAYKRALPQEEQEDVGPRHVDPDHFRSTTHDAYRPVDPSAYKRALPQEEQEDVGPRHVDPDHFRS

Chagas FRA antigen [3] = biological target: T2, Chagas FRA antigen (Trypanosoma cruzi); test: SPR, BIAcore 2000; murine mAb captured on rabbit anti-mouse IgG, FRA injected 0-200 nM
T2 construct: also called FRA-domain; recombinant FRA antigen
T2 chain: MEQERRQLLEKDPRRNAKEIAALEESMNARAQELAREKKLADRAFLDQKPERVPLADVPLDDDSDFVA

[4] = biological target: T3, Chagas FP3 recombinant antigen (Trypanosoma cruzi); test: SPR, BIAcore 2000; murine mAb captured on rabbit anti-mouse IgG, FP3 injected
T3 construct: also called T. cruzi antigen FP3; not shown: His6 tag at the amino end, from the pET vector
T3 chain: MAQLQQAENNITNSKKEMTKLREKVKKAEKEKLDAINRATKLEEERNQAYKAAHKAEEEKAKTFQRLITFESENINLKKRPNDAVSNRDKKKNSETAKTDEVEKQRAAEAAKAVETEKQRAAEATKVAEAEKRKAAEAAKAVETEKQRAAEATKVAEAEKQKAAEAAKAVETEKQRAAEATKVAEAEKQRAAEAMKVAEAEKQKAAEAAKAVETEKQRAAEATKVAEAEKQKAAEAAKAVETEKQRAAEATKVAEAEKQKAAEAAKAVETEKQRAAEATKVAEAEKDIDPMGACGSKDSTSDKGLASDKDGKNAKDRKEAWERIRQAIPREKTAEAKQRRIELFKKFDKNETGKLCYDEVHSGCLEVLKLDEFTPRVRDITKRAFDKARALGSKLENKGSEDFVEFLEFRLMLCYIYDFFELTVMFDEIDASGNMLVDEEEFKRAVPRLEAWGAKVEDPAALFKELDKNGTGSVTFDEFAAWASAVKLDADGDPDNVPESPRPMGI

[5] = biological target: T3, Chagas FP3 recombinant antigen; test: SPR, BIAcore 2000; His6-tagged FP3 captured on anti-His4, chimeric antibody injected 0-300 nM
[6] = biological target: T1, Chagas FP10 recombinant antigen; test: SPR, BIAcore 2000; His6-tagged FP10 captured on anti-His4, chimeric antibody injected
Pep2 antigen = biological target: T4, Pep2 antigen (Trypanosoma cruzi); test: SPR, BIACORE; chimeric antibody from transient COS 7L expression; the antigen is not given
T4 construct: The form of Pep2 coated in the anti-Pep2 microtiter EIA is not described; also called TcF Pep2 peptide
T4 peptide: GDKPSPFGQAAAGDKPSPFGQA

[7] = biological target: Chagas TcF recombinant antigen (Trypanosoma cruzi); test: SPR, BIAcore 2000; chimeric antibody captured on goat anti-human IgG Fc, TcF injected 0-100 nM
[8] = biological target: T3, Chagas FP3 recombinant antigen; test: SPR, BIAcore 2000; His6-tagged FP3 captured on anti-His4, chimeric antibody injected
Chagas FRA antigen [9] = biological target: T2, Chagas FRA antigen; test: SPR, BIAcore 2000; murine mAb captured on rabbit anti-mouse IgG, FRA injected
[10] = biological target: T3, Chagas FP3 recombinant antigen; test: SPR, BIAcore 2000; murine mAb captured on rabbit anti-mouse IgG, FP3 injected 0-200 nM
[11] = biological target: Chagas TcF recombinant antigen (Trypanosoma cruzi); test: SPR, BIAcore 2000; murine mAb captured on rabbit anti-mouse IgG, TcF injected 0-200 nM
[12] = biological target: T1, Chagas FP10 recombinant antigen; test: SPR, BIAcore 2000; His6-tagged FP10 captured on anti-His4, chimeric antibody injected 0-300 nM
[13] = biological target: T1, Chagas FP10 recombinant antigen; test: SPR, BIAcore 2000; murine mAb captured on rabbit anti-mouse IgG, FP10 injected 0-200 nM

B1: murine anti-Chagas monoclonal antibody 8-367-171 (FRA) (antibody, V domains shown)
VH: EVQLQQSGAELVKPGASVKLSCTASGFNIKDTYMHWVKQRPEQGLEWIGRIDPANGNTKYDPKFQGKATITTDTSSNTAYLQLSSLTSEDTAVYYCATSYYGNYVAYWGHGTLVTVSA
VL: DIQMDQSPSSLSASLGDTITITCHASQNINVWLSWYQQKPGNIPKLLIYKASNLHTGVPSRFSGSGSGTGFTLTISSLQPEDIATYYCQQGQSYPLTFGSGRKLEIK
notes: Mouse hybridoma mAb; captured by anti-mouse IgG
For B1, the Kd [1] was 5.2 nM, the koff [1] was 0.0079 s⁻¹ and the kon [1] was 1.5e+06 M⁻¹ s⁻¹. The binding result [2] was “no binding (tested: 0 to 200 nM antigen)”, the Kd (Chagas FRA antigen [3]) was 37 nM and the koff (Chagas FRA antigen [3]) was 0.13 s⁻¹. For the same binder, the kon (Chagas FRA antigen [3]) was 3.6e+06 M⁻¹ s⁻¹ and the binding result [4] was “no binding (tested: 0 to 200 nM antigen)”.

B2: recombinant chimeric (mouse-human) anti-Chagas monoclonal antibody 12-392-150 (FP3) (antibody, V domains shown)
VH: DVQLVESGGGLVQPGGSRKLSCAASGFTFSVFGMHWVRQAPEKGLEWVAYISSGSTIIYYADTVKGRFTISRDNPKNTLFLQMTGLRSEDTAMYYCARPLYYDYDDYAMDYWGQGTSVTVSS
VL: YIVMSQSPSSLAVSAGEKVTMSCKSSQSLLNSRTRKNHLAWYQQKPGQSPKLLIYWASTRESGVPDRFTGSGSGTDFALTISSVQAEDLAVYFCKQSYNLYTFGAGTKLELK
notes: Mouse VH and VL of hybridoma HBFP3 joined to human IgG1 (z, non-a) and human kappa constant regions; the summary and the claims swap them; also called Chimeric Chagas Ab 12-392-150; Chagas FP3 12-392-150CHO2580-104
In the case of B2, the Kd [5] is reported as 0.14 nM, the koff [5] is reported as 0.00038 s⁻¹ and the kon [5] is reported as 2.7e+06 M⁻¹ s⁻¹. B2: no binding (tested: 0 to 300 nM antibody) [6].

B3: recombinant chimeric (mouse-human) anti-Chagas monoclonal antibody 9-638-132 (Pep2 epitope in TcF and FP6) (antibody, V domains shown)
VH: QVQLQQPGAELVRPGASVKLSCKASGYTFTSYWMNWVKLRPGQGLEWIGMIDPSDSETYYDQVFKDKATLTVDKSSSTAYMHLSSLTSEDSAVYYCARWITTDSYTMDYWGQGTSVTVSS
VL: B2 VL with Y1D, K18Q, L30F, H38Y, A78T, F93Y, Y101L
notes: Mouse VH and VL of hybridoma HBPep2 joined to human IgG1 (z, non-a) and human kappa constant regions; the summary and the claims swap them; also called Chimeric Chagas Ab 9-638-132; Chagas Pep2 9-638-1928
Binder B3 has a Kd (Pep2 antigen) of about 2.6 nM, a Kd [7] of 4.1 nM and a koff [7] of 0.017 s⁻¹. For the same binder, the kon [7] was 4e+06 M⁻¹ s⁻¹, the binding result [6] was “no binding (tested: 0 to 300 nM antibody)” and the binding result [8] was “no binding (tested: 0 to 300 nM antibody)”.

B4: murine anti-Chagas monoclonal antibody 12-392-150 (FP3) (antibody, V domains shown)
VH: B2 VH
VL: B2 VL
notes: Mouse hybridoma mAb; captured by anti-mouse IgG; also called Murine Chagas Ab 12-392-150; hybrid 12-392
With B4 the binding result (Chagas FRA antigen [9]) was “no binding (tested: 0 to 200 nM antigen)”, the Kd [10] was 0.08 nM and the koff [10] was 5e-05 s⁻¹. For the same binder, the kon [10] was 560000 M⁻¹ s⁻¹ and the binding result [2] was “no binding (tested: 0 to 200 nM antigen)”.

B5: murine anti-Chagas monoclonal antibody 9-638-132 (Pep2 epitope in TcF and FP6) (antibody, V domains shown)
VH: B3 VH
VL: B2 VL with Y1D, K18Q, L30F, H38Y, A78T, F93Y, Y101L
notes: Mouse hybridoma mAb; captured by anti-mouse IgG; also called Murine Chagas Ab 9-638-132; hybrid 9-638
For B5, the binding result (Chagas FRA antigen [9]) was “no binding (tested: 0 to 200 nM antigen)”, the Kd [11] was 5.7 nM and the koff [11] was 0.012 s⁻¹. The kon [11] was 2.1e+06 M⁻¹ s⁻¹ and the binding result [4] was “no binding (tested: 0 to 200 nM antigen)”.

B6: recombinant chimeric (mouse-human) anti-Chagas monoclonal antibody 10-745-140 (FP10) (antibody, V domains shown)
VH: QVQLQQPGAELVKPGASVKMSCKASGYTFTSYWVHWVKQRPGQGLEWIGVIDPSDSYTSYNQKFKGKATLTVDTSSSTAYMQLSSLTSEDSAVYYCTRHYDFDSWYFDVWGAGTTVTVSS
VL: DVVMTQTPLSLPVSLGDQASISCRSSQSLVHSNGNTYLHWYLQKPGQSPKLLIYKVSNRFSGVPDRFSGSGSGTDFTLKISRVEAEDLGVYFCSQSTHVPPTFGGGTKLEIK
notes: Mouse VH and VL of hybridoma HBFP10 joined to human IgG1 (z, non-a) and human kappa constant regions; the summary and the claims swap them; also called Chimeric Chagas Ab 10-745-140; Chagas FP10 10-745-3796
B6 was tested, and the Kd [12] was 2.9 nM, the koff [12] was 0.00036 s⁻¹ and the kon [12] was 120000 M⁻¹ s⁻¹. B6: no binding (tested: 0 to 300 nM antibody) [8].

B7: murine anti-Chagas monoclonal antibody 10-745-140 (FP10) (antibody, V domains shown)
VH: B6 VH
VL: B6 VL
notes: Mouse hybridoma mAb; captured by anti-mouse IgG; also called Murine Chagas Ab 10-745-140; Chagas 10-745-140
B7 gave a Kd [13] of 1.9 nM, a koff [13] of 0.00022 s⁻¹ and a kon [13] of 110000 M⁻¹ s⁻¹.
